Molecular target: influenza HA proteins mixture of A/California/7/09 (H1N1), A/Victoria/210/09 (H3N2), and B/Brisbane/
Assay: SPR
Settings: natural protein

Pseudomonas taiwanensis lectin (PTL)
Kd: 8.9 nM | koff: 9.1e-06 s⁻¹

Source: paper PMC8166773
